Where “and” joins values, the source holds several entries; their conditions need not be identical. Equal values may be shown once.
Settings: Archaeoglobus fulgidus (strain ATCC 49558 / DSM 4304 / JCM 9628 / NBRC 100126 / VC-16), pH 7.5, CD, sodium phosphate 20 mM, reversible: no, whole UniProt chain shown

B1: wild type, O28558 (protein)
chain: MLDMPIDPVYYQLAEYFDSLPKFDQFSSAREYREAINRIYEERNRQLSQHERVERVEDRTIKGRNGDIRVRVYQQKPDSPVLVYYHGGGFVICSIESHDALCRRIARLSNSTVVSVDYRLAPEHKFPAAVYDCYDATKWVAENAEELRIDPSKIFVGGDSAGGNLAAAVSIMARDSGEDFIKHQILIYPVVNFVAPTPSLLEFGEGLWILDQKIMSWFSEQYFSREEDKFNPLASVIFADLENLPPALIITAEYDPLRDEGEVFGQMLRRAGVEASIVRYRGVLHGFINYYPVLKAARDAINQIAALLVFD
denaturant m value (20 °C, Urea): 1.65 kcal/mol/M | denaturant midpoint (higher = more stable) (20 °C, Urea): 7.1 M | unfolding free energy (20 °C, Urea): 11.7 kcal/mol | unfolding enthalpy (van 't Hoff) (Thermal): 103 kcal/mol and 95.6 kcal/mol and 90.8 kcal/mol
